Each block holds one binder with its values, some of them ahead of it. Numbered stars: 1 amine (or outer) side, 2 acyl side, 3 side chain; on linkers, the order of the positions; unused ones are H or OH. Bridge positions count the residues as written; N and C are the ends. Ends that are not written are not given here. * marks the point of attachment. C20 diacid = O=C(O)CCCCCCCCCCCCCCCCCCC(=O)*; γGlu = O=C(O)[C@H](CCC(=O)[*:2])N[*:1]
Key:
[1] = target: T1, human amylin receptor (amylin 3(a) receptor: human calcitonin receptor plus RAMP-3) (human, UniProt P30988 25-474; O60896 24-148); assay: cell-based or functional assay
T1 sequence (looked up) 1: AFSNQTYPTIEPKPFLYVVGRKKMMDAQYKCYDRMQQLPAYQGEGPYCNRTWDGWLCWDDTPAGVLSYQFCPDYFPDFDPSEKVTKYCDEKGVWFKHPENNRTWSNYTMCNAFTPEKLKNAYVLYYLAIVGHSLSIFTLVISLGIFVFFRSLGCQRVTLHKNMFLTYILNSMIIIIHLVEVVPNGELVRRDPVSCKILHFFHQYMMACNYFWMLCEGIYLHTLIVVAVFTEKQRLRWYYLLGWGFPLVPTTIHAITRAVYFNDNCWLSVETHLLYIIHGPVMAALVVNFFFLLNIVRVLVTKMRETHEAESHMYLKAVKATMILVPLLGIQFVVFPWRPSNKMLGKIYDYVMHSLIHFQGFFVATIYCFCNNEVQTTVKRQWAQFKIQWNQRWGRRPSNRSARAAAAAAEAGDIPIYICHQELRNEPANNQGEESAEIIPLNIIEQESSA
T1 sequence (looked up) 2: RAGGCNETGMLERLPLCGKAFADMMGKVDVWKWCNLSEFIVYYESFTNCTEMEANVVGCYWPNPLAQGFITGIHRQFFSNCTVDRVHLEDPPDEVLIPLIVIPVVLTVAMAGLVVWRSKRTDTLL

[2] = target: T2, human calcitonin receptor (human, UniProt P30988 25-474); assay: cell-based or functional assay
T2 sequence (looked up): T1 sequence (looked up) 1

[3] = target: T1, human amylin receptor (amylin 3(a) …); assay: SPA competition, displacement of 125I-rat amylin from membranes of BHK cells with human calcitonin receptor + RAMP-3 (Assay V)
Method: The binding assay was performed using scintillation proximity assay (SPA) beads (RPNQ0001) from PerkinElmer and cell membranes from the Amylin 3(a)/CRE-luc cells (as described in Assay (II)) were used. Membranes were prepared in the following way; the cells were rinsed with PBS and incubated with Versene for approximately 5 min before harvesting. The cells were flushed with PBS and the cell-suspension was centrifuged for 5 min at 1000 rpm. Cells were homogenized (ultrathurrax) in a buffer containing 20 mM Na-HEPES and 10 mM EDTA (pH 7.4) and centrifuged at 20.000 rpm for 15 min. The resulting pellet was resuspended, homogenized and centrifuged (20.000 rpm, 15 min) in a buffer containing 20 mM Na-HEPES and 0.1 mM EDTA (pH 7.4, buffer 2). The resulting pellet was resuspended in buffer 2 and protein concentration was measured (BCA protein Assay, Pierce). The homogenate was kept cold during the whole procedure. The membranes were kept at −80° C. until use. The assay was performed in a 384 well Optiplate (PerkinElmer) in a total volume of 40 ul. Membranes were mixed with SPA beads. Final concentration of membranes 35 ng/μL final and SPA beads was 0.05 mg/well. Test-compounds were dissolved in DMSO and further diluted in assay buffer (50 mM Hepes, pH 7.4, 1 mM CaCl2, 5 mM MgCl₂, 0.1% OA and 0.02% Tween20). […] The final mixture was incubated with shaking at 400 rpm for 120 min at 25° C. prior to centrifugation (1500 rpm, 10 min). Samples were analyzed on TopCounter™ (Packard). The IC₅₀ was calculated using (one site binding competition analysis) GraphPad Prism5 as a measure of receptor affinity.

[4] = target: T3, human amylin receptor (amylin 3(a) receptor: human calcitonin receptor co-expressed with RAMP-3) (human, UniProt P30988 25-474; O60896 24-148, limits assumed); assay: SPA displacement of 125I-rat amylin, hAmylin 3(a) receptor membranes
T3 construct: whole, on cells; Used as cell membranes prepared from the Amylin 3(a)/CRE-luc BHK cells (Assay V); also called hAmylin-R; hAmylinR
T3 sequence (looked up) 1: T1 sequence (looked up) 1
T3 sequence (looked up) 2: T1 sequence (looked up) 2
In short: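 One-site competition analysis of SPA counts yielded IC₅₀ as a measure of affinity. Membranes were at 35 ng/μL final; incubation was 120 min at 25° C, pH 7.4.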

rat calcitonin receptor = target: T4, rat calcitonin receptor (rat, UniProt P32214 25-516); assay: SPA competition binding, displacement of 125I-Calcitonin from membranes of BHK tk'ts 13 cells with rat calcitonin receptor (Assay VIII)
T4 construct: whole, on cells; In cell membranes prepared from transiently transfected BHK tk'ts 13 cells (Assay VIII); also called rCTR; rat calcitonin (a) receptor
T4 sequence (looked up): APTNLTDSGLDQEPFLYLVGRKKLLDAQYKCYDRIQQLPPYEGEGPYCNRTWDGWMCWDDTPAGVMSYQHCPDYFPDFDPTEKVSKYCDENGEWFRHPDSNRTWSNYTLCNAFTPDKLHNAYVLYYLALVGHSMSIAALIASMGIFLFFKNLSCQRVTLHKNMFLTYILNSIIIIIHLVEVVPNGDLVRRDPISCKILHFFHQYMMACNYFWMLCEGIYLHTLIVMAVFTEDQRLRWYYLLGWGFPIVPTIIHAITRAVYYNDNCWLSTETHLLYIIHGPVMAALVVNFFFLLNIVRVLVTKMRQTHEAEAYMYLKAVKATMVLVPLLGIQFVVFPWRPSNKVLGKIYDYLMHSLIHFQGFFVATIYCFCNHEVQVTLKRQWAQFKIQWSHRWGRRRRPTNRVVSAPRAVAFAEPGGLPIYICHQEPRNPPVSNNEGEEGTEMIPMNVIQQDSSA

Ratio hCT/hAmylin funct. [1]: 4.8
hAmylin-R funct. EC50 (pM) [1]: 154 pM
hCTR funct. EC50 (pM) [2]: 742 pM
IC50 [3]: 554 pM
B1: N^α1-[(4S)-4-carboxy-4-(19-carboxynonadecanoylamino)butanoyl]-[Glu14,Arg17,Pro21,Pro27,His35]-h-amylin (peptide)
peptide: {C20 diacid-γGlu}-KCNTATCATQRLAEFLRHSSPNFGAIPSSTNVGSHTY-NH2
modifications: disulfide 2-7
SMILES: CC[C@H](C)[C@H](NC(=O)[C@H](C)NC(=O)CNC(=O)[C@H](Cc1ccccc1)NC(=O)[C@H](CC(N)=O)NC(=O)[C@@H]1CCCN1C(=O)[C@H](CO)NC(=O)[C@H](CO)NC(=O)[C@H](Cc1c[nH]cn1)NC(=O)[C@H](CCCNC(=N)N)NC(=O)[C@H](CC(C)C)NC(=O)[C@H](Cc1ccccc1)NC(=O)[C@H](CCC(=O)O)NC(=O)[C@H](C)NC(=O)[C@H](CC(C)C)NC(=O)[C@H](CCCNC(=N)N)NC(=O)[C@H](CCC(N)=O)NC(=O)[C@@H](NC(=O)[C@H](C)NC(=O)[C@@H]1CSSC[C@H](NC(=O)[C@H](CCCCN)NC(=O)CC[C@H](NC(=O)CCCCCCCCCCCCCCCCCCC(=O)O)C(=O)O)C(=O)N[C@@H](CC(N)=O)C(=O)N[C@@H]([C@@H](C)O)C(=O)N[C@@H](C)C(=O)N[C@@H]([C@@H](C)O)C(=O)N1)[C@@H](C)O)C(=O)N1CCC[C@H]1C(=O)N[C@@H](CO)C(=O)N[C@@H](CO)C(=O)N[C@H](C(=O)N[C@@H](CC(N)=O)C(=O)N[C@H](C(=O)NCC(=O)N[C@@H](CO)C(=O)N[C@@H](Cc1c[nH]cn1)C(=O)N[C@H](C(=O)N[C@@H](Cc1ccc(O)cc1)C(N)=O)[C@@H](C)O)C(C)C)[C@@H](C)O
notes: also called compound 18

Ratio hCT/hAmylin funct. [1]: 6
hAmylin-R funct. EC50 (pM) [1]: 222 pM
hCTR funct. EC50 (pM) [2]: 1320 pM
IC50 [3]: 344 pM
B2: N^-1-[(4S)-4-carboxy-4-(19-carboxynonadecanoylamino)butanoyl]-Gly[Arg1,Arg17,Pro21,Pro27,His35]-h-amylin (peptide)
peptide: {C20 diacid-γGlu}-GRCNTATCATQRLANFLRHSSPNFGAIPSSTNVGSHTY-NH2
modifications: disulfide 3-8
SMILES: CC[C@H](C)[C@H](NC(=O)[C@H](C)NC(=O)CNC(=O)[C@H](Cc1ccccc1)NC(=O)[C@H](CC(N)=O)NC(=O)[C@@H]1CCCN1C(=O)[C@H](CO)NC(=O)[C@H](CO)NC(=O)[C@H](Cc1c[nH]cn1)NC(=O)[C@H](CCCNC(=N)N)NC(=O)[C@H](CC(C)C)NC(=O)[C@H](Cc1ccccc1)NC(=O)[C@H](CC(N)=O)NC(=O)[C@H](C)NC(=O)[C@H](CC(C)C)NC(=O)[C@H](CCCNC(=N)N)NC(=O)[C@H](CCC(N)=O)NC(=O)[C@@H](NC(=O)[C@H](C)NC(=O)[C@@H]1CSSC[C@H](NC(=O)[C@H](CCCNC(=N)N)NC(=O)CNC(=O)CC[C@H](NC(=O)CCCCCCCCCCCCCCCCCCC(=O)O)C(=O)O)C(=O)N[C@@H](CC(N)=O)C(=O)N[C@@H]([C@@H](C)O)C(=O)N[C@@H](C)C(=O)N[C@@H]([C@@H](C)O)C(=O)N1)[C@@H](C)O)C(=O)N1CCC[C@H]1C(=O)N[C@@H](CO)C(=O)N[C@@H](CO)C(=O)N[C@H](C(=O)N[C@@H](CC(N)=O)C(=O)N[C@H](C(=O)NCC(=O)N[C@@H](CO)C(=O)N[C@@H](Cc1c[nH]cn1)C(=O)N[C@H](C(=O)N[C@@H](Cc1ccc(O)cc1)C(N)=O)[C@@H](C)O)C(C)C)[C@@H](C)O
notes: N-terminal extension by Gly at position -1; also called compound 47

IC50 [4]: 426 pM
B3: N^-1-[(4S)-4-carboxy-4-(19-carboxynonadecanoylamino)butanoyl]-Gly[Arg1,Ala14,Arg17,Pro21,Pro27,His34]-h-amylin (peptide)
peptide: {C20 diacid-γGlu}-GRCNTATCATQRLAAFLRHSSPNFGAIPSSTNVGHNTY-NH2
modifications: disulfide 3-8
SMILES: CC[C@H](C)[C@H](NC(=O)[C@H](C)NC(=O)CNC(=O)[C@H](Cc1ccccc1)NC(=O)[C@H](CC(N)=O)NC(=O)[C@@H]1CCCN1C(=O)[C@H](CO)NC(=O)[C@H](CO)NC(=O)[C@H](Cc1c[nH]cn1)NC(=O)[C@H](CCCNC(=N)N)NC(=O)[C@H](CC(C)C)NC(=O)[C@H](Cc1ccccc1)NC(=O)[C@H](C)NC(=O)[C@H](C)NC(=O)[C@H](CC(C)C)NC(=O)[C@H](CCCNC(=N)N)NC(=O)[C@H](CCC(N)=O)NC(=O)[C@@H](NC(=O)[C@H](C)NC(=O)[C@@H]1CSSC[C@H](NC(=O)[C@H](CCCNC(=N)N)NC(=O)CNC(=O)CC[C@H](NC(=O)CCCCCCCCCCCCCCCCCCC(=O)O)C(=O)O)C(=O)N[C@@H](CC(N)=O)C(=O)N[C@@H]([C@@H](C)O)C(=O)N[C@@H](C)C(=O)N[C@@H]([C@@H](C)O)C(=O)N1)[C@@H](C)O)C(=O)N1CCC[C@H]1C(=O)N[C@@H](CO)C(=O)N[C@@H](CO)C(=O)N[C@H](C(=O)N[C@@H](CC(N)=O)C(=O)N[C@H](C(=O)NCC(=O)N[C@@H](Cc1c[nH]cn1)C(=O)N[C@@H](CC(N)=O)C(=O)N[C@H](C(=O)N[C@@H](Cc1ccc(O)cc1)C(N)=O)[C@@H](C)O)C(C)C)[C@@H](C)O

IC50 [4]: 217 pM
B4: N^-1-[(4S)-4-carboxy-4-(19-carboxynonadecanoylamino)butanoyl]-Gly[Arg1,His14,Arg17,Pro21,Pro27,Pro34]-h-amylin (peptide)
peptide: {C20 diacid-γGlu}-GRCNTATCATQRLAHFLRHSSPNFGAIPSSTNVGPNTY-NH2
modifications: disulfide 3-8
SMILES: CC[C@H](C)[C@H](NC(=O)[C@H](C)NC(=O)CNC(=O)[C@H](Cc1ccccc1)NC(=O)[C@H](CC(N)=O)NC(=O)[C@@H]1CCCN1C(=O)[C@H](CO)NC(=O)[C@H](CO)NC(=O)[C@H](Cc1c[nH]cn1)NC(=O)[C@H](CCCNC(=N)N)NC(=O)[C@H](CC(C)C)NC(=O)[C@H](Cc1ccccc1)NC(=O)[C@H](Cc1c[nH]cn1)NC(=O)[C@H](C)NC(=O)[C@H](CC(C)C)NC(=O)[C@H](CCCNC(=N)N)NC(=O)[C@H](CCC(N)=O)NC(=O)[C@@H](NC(=O)[C@H](C)NC(=O)[C@@H]1CSSC[C@H](NC(=O)[C@H](CCCNC(=N)N)NC(=O)CNC(=O)CC[C@H](NC(=O)CCCCCCCCCCCCCCCCCCC(=O)O)C(=O)O)C(=O)N[C@@H](CC(N)=O)C(=O)N[C@@H]([C@@H](C)O)C(=O)N[C@@H](C)C(=O)N[C@@H]([C@@H](C)O)C(=O)N1)[C@@H](C)O)C(=O)N1CCC[C@H]1C(=O)N[C@@H](CO)C(=O)N[C@@H](CO)C(=O)N[C@H](C(=O)N[C@@H](CC(N)=O)C(=O)N[C@H](C(=O)NCC(=O)N1CCC[C@H]1C(=O)N[C@@H](CC(N)=O)C(=O)N[C@H](C(=O)N[C@@H](Cc1ccc(O)cc1)C(N)=O)[C@@H](C)O)C(C)C)[C@@H](C)O

IC50 [4]: 114 pM
Binder: {C20 diacid-γGlu}-GRCNTATCATQRLAAFLRHSSPNFGAIPSSTNVGPNTY-NH2 (disulfide 3-8)

IC50 (rat calcitonin receptor): 30900 pM
Binder: KCNTATCATQRLADFLRHSSPNFGAIPSSTNVGSRTY-NH2 (disulfide 2-7) [[Asp14,Arg17,Pro21,Pro27,Arg35]-h-amylin]

Source: patent US20140087995A1 (published 2014)
